# Data: PMC11309785
# B1: RM_N332_08 Fab (Fab, V domains shown)
# VH: QVQLVQSGAEVKKPGSSVKVSCKASGYTFTDHYIHWVRQAPRQGLEWMGWINPYNGNTNYAQKFQGRVTLTRDTSTTTVYMELISLRSEDTAVYYCARGGEYCTGFGCFAGKGDNSLDVWGRGVLVSVSS
# VL: DIVMIQTPLSLPVTPGEPASISCRSSQSLFDIEDETTYLEWFLQKPGQSPQPLIYEVSNRASGVPDRFSGSGSDTAFTLKISRVEAEDVGIYYCMQGIEYPFTFGPGTKVEIK
# B2: RM_N332_07 Fab (Fab, V domains shown)
# VH: QVQLQESGPGLVKPSETLSLTCAVSGASFSSFWWDWIRQPPGRGLEWIGDINGNSGSTNYNPSLKSRVTISKDASKSQFSLKLTSVTAADTAVYYCALQSVTYYEDDSGHYETEMAKFWGQGVLVTVSS
# VL: QPVLTQPPSVSGAPGQRVTISCSGSSSNIGGYHVQWYQQLPGTAPKLLIYESNKRPSGISDRFSASQFGTSASLTITGLQSEDEADYYCQSYDSSVSAQVFGGGTRLTVL
# Target: BG505_B23 trimer, His-tagged (HIV-1 isolate BG505)
# Assay: SPR; ProteOn XPR36, HC30M XanTec chip; His-tagged trimer (300 to 400 RU, 1 ug/mL) captured by immobilised rabbit anti-His-tag pAb, Fab flowed as analyte at 30 ul/min for 3 min, 5 min dissociation; 1x HBS-EP+ pH 7.4 with BSA 1 mg/ml; equilibrium or kinetic (Langmuir) fits; highest concentration 2x10^-5 M, approximate upper affinity limit 1.6x10^-11 M
row,Binder,Kd [nM]
1,B1,< 100
2,B2,< 100
